Experimental findings from the supplement of paper PMC7877785 are described below.

± gives the uncertainty stated by the source.

This data set can be described thus: self-splicing fitness, log relative to wild type (ln ratio); higher = more splicing; Tetrahymena group I intron in knt gene, E. coli kanamycin selection, DiMSum; sequences stand for … in CUCUCU…GGAGGGAAAAGUUAUCAGGCAUGCACCUGGUAGCUAGUCUUUAAACCAAUAGAUUGCAUCGGUUUAAAAGGCAAGACCGUCAAAUUGCGGGAAAGGGGUCAACAGCCGUUCAGUACCAAGUCUCAGGGGAAACUUUGAGAUGGCCUUGCAAAGGGUAUGGUAAUAAGCUGACGGACAUGGUCCUAACCACGCAGCCAAGUCCUAAGUCAACAGAUCUUCUGUUGAUAUGGAUGCAGUUCACAGACUAAAUGUCGGUCGGGGAAGAUGUAUUCUUCUCAUAAGAUAUAGUCGGACCUCUCCUUAAUGGGAGCUAGCGGAUGAAGUGAUGCAACACUGGAGCCGCUGGGAACUAAUUUGUAUGCGAAAGUAUAUUGAUUAGUUUUGGAGUACUCGUGGUCG
The procedure, abridged: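 Colonies from six replicate transformations of E. coli BL21(DE3) were pooled and amplicon-sequenced on an Illumina HiSeq 2500. The library placed an intron with all eight P1ex-region nucleotides randomised inside the knt kanamycin-resistance gene on pET-22b(+), and cells grew overnight at 37°C or 30°C on LB agar with or without 25 μg/mL kanamycin (plus 100 μg/mL carbenicillin, 50 μM IPTG, 0.2% rhamnose). Fitness is the DiMSum error-weighted combination of wild-type-normalised replicate fold changes, kanamycin versus none.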

As to GAUUAGCAAUAUUACGUGGA, the “self-splicing fitness (ln)” value was -3.92 ± 0.3 (30 °C) and -0.488 ± 0.13 (37 °C).
For GCUGAGCAAUAUUACGAGUA, in that order: -2.25 ± 0.31 and -1.72 ± 0.35.
For GCCCAGCAAUAUUACGUAAG, the “self-splicing fitness (ln)” value (30 °C) is -1.15 ± 0.072 and the “self-splicing fitness (ln)” value (37 °C) is -0.871 ± 0.1.
For the sequence UUCUAGCAAUAUUACGAUUG, the “self-splicing fitness (ln)” value is -3.24 ± 0.31 (30 °C) and -1.94 ± 0.21 (37 °C).
The corresponding values for UAAUAGCAAUAUUACGCCAU are -2.36 ± 0.22 and -1.55 ± 0.23.
As for UCGGAGCAAUAUUACGAGAU, the “self-splicing fitness (ln)” value (37 °C) was -1.51 ± 0.35.
With UAUGAGCAAUAUUACGUGAU, the “self-splicing fitness (ln)” value is, setting by setting: (30 °C) -3.04 ± 0.15; (37 °C) -2.76 ± 0.25.
For AGAUAGCAAUAUUACGGGAA, the “self-splicing fitness (ln)” value runs as follows: (30 °C) -3 ± 0.27; (37 °C) -2.7 ± 0.25.
Regarding CUAGAGCAAUAUUACGGUAU, the “self-splicing fitness (ln)” value (37 °C) is -1.76 ± 0.49.
As to ACUGAGCAAUAUUACGCGGG, the “self-splicing fitness (ln)” value is, setting by setting: (30 °C) -2.64 ± 0.17; (37 °C) -2.03 ± 0.18.
The corresponding values for GAAAAGCAAUAUUACGUCAU are -1.82 ± 0.088 and -0.42 ± 0.097.
The corresponding values for UGCAAGCAAUAUUACGUCGA are -1.09 ± 0.082 and -0.989 ± 0.089.
For the sequence UCGAAGCAAUAUUACGCAAU, the “self-splicing fitness (ln)” value (37 °C) is -2.03 ± 0.27.
On to AAUCAGCAAUAUUACGCAAC, for which the “self-splicing fitness (ln)” value by setting is: (30 °C) -1.32 ± 0.11; (37 °C) -0.666 ± 0.13.
The corresponding values for AAACAGCAAUAUUACGCGAC are -2.77 ± 0.21 and -1.68 ± 0.14.
For GAAAAGCAAUAUUACGUACG, in that order: -1.16 ± 0.061 and -0.9 ± 0.079.
For AGGUAGCAAUAUUACGACCG, the “self-splicing fitness (ln)” value (30 °C) is -0.101 ± 0.02 and the “self-splicing fitness (ln)” value (37 °C) turned out to be 0.197 ± 0.039.
The corresponding values for GCAAAGCAAUAUUACGUCCC are -0.828 ± 0.14 and -0.697 ± 0.098.
The corresponding values for CAACAGCAAUAUUACGACUC are -1.74 ± 0.11 and -0.579 ± 0.12.
For UCCAAGCAAUAUUACGAAGG, in that order: -1.32 ± 0.11 and -0.206 ± 0.15.
For the sequence GUUCAGCAAUAUUACGGAGC, the “self-splicing fitness (ln)” value (30 °C) is -2.39 ± 0.32 and the “self-splicing fitness (ln)” value (37 °C) was -1.53 ± 0.42.
The corresponding values for AAUAAGCAAUAUUACGACUG are -0.872 ± 0.088 and -1.18 ± 0.11.
The corresponding values for AAGGAGCAAUAUUACGUUGA are -3.47 ± 0.23 and -2.52 ± 0.19.
As for CACCAGCAAUAUUACGGAUA, the “self-splicing fitness (ln)” value is, setting by setting: (30 °C) -1.42 ± 0.065; (37 °C) -1.18 ± 0.069.
The corresponding values for GCGGAGCAAUAUUACGUAUG are -3.28 ± 0.31 and -2.58 ± 0.41.
Take GGAAAGCAAUAUUACGGGUA: the “self-splicing fitness (ln)” value (30 °C) was -1.86 ± 0.17 and the “self-splicing fitness (ln)” value (37 °C) is -1.32 ± 0.15.
Take ACUAAGCAAUAUUACGGGGA: the “self-splicing fitness (ln)” value reads like this: (30 °C) -1.84 ± 0.12; (37 °C) -1.55 ± 0.13.
On to UCUGAGCAAUAUUACGGCGC, for which the “self-splicing fitness (ln)” value (30 °C) is -3.06 ± 0.29 and the “self-splicing fitness (ln)” value (37 °C) is -2.02 ± 0.32.
For UAUAAGCAAUAUUACGUAGU, in that order: -3.65 ± 0.25 and -2.07 ± 0.25.
With UCGUAGCAAUAUUACGAUUU, the “self-splicing fitness (ln)” value reads like this: (30 °C) -3.1 ± 0.25; (37 °C) -2.4 ± 0.24.
As to UCCUAGCAAUAUUACGUCAA, the “self-splicing fitness (ln)” value (37 °C) was -1.52 ± 0.39.
Take CCCGAGCAAUAUUACGGACG: the “self-splicing fitness (ln)” value was -3.62 ± 0.29 (30 °C) and -0.706 ± 0.18 (37 °C).
For UGUUAGCAAUAUUACGGAAU, in that order: -0.534 ± 0.34 and -1.91 ± 0.38.
The corresponding values for GCCUAGCAAUAUUACGAGGA are -0.444 ± 0.06 and -0.065 ± 0.067.
In the case of AUUUAGCAAUAUUACGCUCC, where the note is “30 °C”, the “self-splicing fitness (ln)” value was -1.4 ± 0.47.
On to UCGAAGCAAUAUUACGUAGA, for which the “self-splicing fitness (ln)” value is, setting by setting: (30 °C) -1.81 ± 0.14; (37 °C) -0.562 ± 0.15.
The corresponding values for GAAGAGCAAUAUUACGUUGC are -3.04 ± 0.28 and -2.25 ± 0.27.
The corresponding values for UCGUAGCAAUAUUACGGACG are -2.58 ± 0.24 and -1.68 ± 0.21.
The corresponding values for UUAUAGCAAUAUUACGCGCA are -1.06 ± 0.19 and -0.728 ± 0.2.
In the case of GGUUAGCAAUAUUACGGCUA, the “self-splicing fitness (ln)” value reads like this: (30 °C) -0.605 ± 0.088; (37 °C) 0.861 ± 0.13.
In the case of AGUGAGCAAUAUUACGCUGC, the “self-splicing fitness (ln)” value (30 °C) is -2.29 ± 0.46 and the “self-splicing fitness (ln)” value (37 °C) was -2.44 ± 0.44.
With CCGUAGCAAUAUUACGGCGG, the “self-splicing fitness (ln)” value reads like this: (30 °C) -4.06 ± 0.3; (37 °C) -2.97 ± 0.26.
For ACGGAGCAAUAUUACGGACG, in that order: -1.96 ± 0.19 and -1.17 ± 0.22.
For CCUUAGCAAUAUUACGUGAC, in that order: -3.61 ± 0.28 and -2.68 ± 0.28.
For CAGAAGCAAUAUUACGUUGU, in that order: -3.38 ± 0.13 and -2.81 ± 0.15.
Take CCCGAGCAAUAUUACGUACC: the “self-splicing fitness (ln)” value (30 °C) is -2 ± 0.21.
Turning to AACCAGCAAUAUUACGCAUA, the “self-splicing fitness (ln)” value by setting is: (30 °C) -0.88 ± 0.078; (37 °C) 0.309 ± 0.089.
In the case of UCCUAGCAAUAUUACGAUGA, the “self-splicing fitness (ln)” value came out at 0.139 ± 0.083 (30 °C) and 0.437 ± 0.098 (37 °C).
On to UCAAAGCAAUAUUACGUACU, for which the “self-splicing fitness (ln)” value runs as follows: (30 °C) -3.16 ± 0.45; (37 °C) -2.28 ± 0.37.
For GCUAAGCAAUAUUACGGCCG, in that order: -3.06 ± 0.25 and -2.9 ± 0.47.
For GAUGAGCAAUAUUACGGCUA, in that order: -1.01 ± 0.17 and -1.41 ± 0.17.
The corresponding values for UCUCAGCAAUAUUACGAACG are -1.88 ± 0.12 and -0.666 ± 0.14.
Take CUUAAGCAAUAUUACGGUAA: the “self-splicing fitness (ln)” value (37 °C) was -3.38 ± 0.37.
In the case of GUAUAGCAAUAUUACGCGAG, the “self-splicing fitness (ln)” value is, setting by setting: (30 °C) -1.31 ± 0.11; (37 °C) -1.47 ± 0.12.
As for UGCCAGCAAUAUUACGAGUC, the “self-splicing fitness (ln)” value by setting is: (30 °C) -3.49 ± 0.16; (37 °C) -1.6 ± 0.16.
The corresponding values for ACUUAGCAAUAUUACGAUAU are -1.62 ± 0.087 and -1.18 ± 0.11.
For UGUUAGCAAUAUUACGAUCA, in that order: -0.0398 ± 0.15 and 0.805 ± 0.15.
Consider AUUAAGCAAUAUUACGCGUA, for which the “self-splicing fitness (ln)” value by setting is: (30 °C) -1.27 ± 0.14; (37 °C) -0.834 ± 0.16.
On to GCAGAGCAAUAUUACGGUAA, for which the “self-splicing fitness (ln)” value runs as follows: (30 °C) -3.52 ± 0.27; (37 °C) -2.36 ± 0.21.
As to CCUUAGCAAUAUUACGUAUA, for the setting “37 °C”, the “self-splicing fitness (ln)” value was -3.25 ± 0.37.
On to GCGGAGCAAUAUUACGUCCU, for which the “self-splicing fitness (ln)” value is -1.31 ± 0.25 (30 °C) and -0.651 ± 0.41 (37 °C).
In the case of CCGUAGCAAUAUUACGUACG, the “self-splicing fitness (ln)” value by setting is: (30 °C) -2.13 ± 0.18; (37 °C) -1.83 ± 0.21.
For the sequence UGAAAGCAAUAUUACGUCCA, the “self-splicing fitness (ln)” value runs as follows: (30 °C) 0.114 ± 0.088; (37 °C) -0.497 ± 0.11.
For AAUUAGCAAUAUUACGUUCC, in that order: -3 ± 0.22 and -1.32 ± 0.21.
Consider UCAGAGCAAUAUUACGUCCU, for which, where the note is “30 °C”, the “self-splicing fitness (ln)” value is -3.91 ± 0.42.
As to AUCGAGCAAUAUUACGUAGG, the “self-splicing fitness (ln)” value was -3.82 ± 0.39 (30 °C) and -2.04 ± 0.2 (37 °C).
With UGGGAGCAAUAUUACGAUAA, the “self-splicing fitness (ln)” value (30 °C) is -0.547 ± 0.44.
For the sequence CCGCAGCAAUAUUACGGAUU, the “self-splicing fitness (ln)” value is -3.8 ± 0.14 (30 °C) and -2.75 ± 0.16 (37 °C).
On to UAACAGCAAUAUUACGCAAU, for which the “self-splicing fitness (ln)” value is -2.89 ± 0.15 (30 °C) and -0.816 ± 0.15 (37 °C).
For GGCAAGCAAUAUUACGAUGC, in that order: -2.36 ± 0.11 and -1.02 ± 0.12.
For GCAAAGCAAUAUUACGCGAC, in that order: -3.4 ± 0.13 and -1.54 ± 0.16.
As for AGAUAGCAAUAUUACGAUUA, the “self-splicing fitness (ln)” value was -0.68 ± 0.15 (30 °C) and -0.852 ± 0.14 (37 °C).
The corresponding values for UAAAAGCAAUAUUACGUGAA are -1.36 ± 0.082 and -1.06 ± 0.1.
For UCCCAGCAAUAUUACGGUGG, in that order: -3.65 ± 0.15 and -2.5 ± 0.15.
As for UCUGAGCAAUAUUACGCAGC, the “self-splicing fitness (ln)” value (30 °C) is -2.75 ± 0.42.
On to GGGCAGCAAUAUUACGACAG, for which the “self-splicing fitness (ln)” value is -2.72 ± 0.39 (30 °C) and -0.948 ± 0.32 (37 °C).
UAUGAGCAAUAUUACGAACA: the “self-splicing fitness (ln)” value (30 °C) is -2.47 ± 0.24 and the “self-splicing fitness (ln)” value (37 °C) is -0.662 ± 0.14.
For ACAGAGCAAUAUUACGAAUU, in that order: -4.27 ± 0.33 and -1.57 ± 0.2.
